What all share (assay): SPR, KD relative to WT C2;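 also: biacore SPR at 37 °C, anti-C2 mAbs captured via immobilised goat anti-human IgG, C2 alanine or serine surface mutants as analytes, 1:1 model fitted, double-referenced sensograms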
Background: In SPR one partner is held on a chip, and binding of the other changes the refractive index at the surface.

Assay [1] deals with T1, human C2 K430A (human, UniProt P06681 21-752).
T1 sequence: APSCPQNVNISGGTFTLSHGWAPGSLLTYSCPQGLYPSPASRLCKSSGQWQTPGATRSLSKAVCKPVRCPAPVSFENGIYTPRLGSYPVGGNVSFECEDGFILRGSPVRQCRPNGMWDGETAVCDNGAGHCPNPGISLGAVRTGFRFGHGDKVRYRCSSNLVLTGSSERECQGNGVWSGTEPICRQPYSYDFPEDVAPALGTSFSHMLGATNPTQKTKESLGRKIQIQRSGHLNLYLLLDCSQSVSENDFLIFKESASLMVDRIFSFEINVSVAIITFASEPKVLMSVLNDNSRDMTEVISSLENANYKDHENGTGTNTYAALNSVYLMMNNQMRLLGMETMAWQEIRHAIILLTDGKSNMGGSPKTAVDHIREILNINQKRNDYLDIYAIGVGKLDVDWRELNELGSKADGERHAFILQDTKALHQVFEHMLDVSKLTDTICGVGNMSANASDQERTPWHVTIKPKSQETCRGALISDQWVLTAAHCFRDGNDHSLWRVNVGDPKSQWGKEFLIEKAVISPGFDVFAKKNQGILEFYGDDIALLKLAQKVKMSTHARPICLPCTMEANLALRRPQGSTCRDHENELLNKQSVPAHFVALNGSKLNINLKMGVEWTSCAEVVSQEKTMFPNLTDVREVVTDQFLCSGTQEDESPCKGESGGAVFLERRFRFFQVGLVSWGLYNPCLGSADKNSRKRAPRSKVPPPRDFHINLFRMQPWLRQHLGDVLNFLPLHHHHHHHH

The target in assay [2] is T2, human C2 H451A (human, UniProt P06681 21-752).
T2 sequence: T1 sequence with A410K, H431A

The target in assay [3] is T3, human C2 N467A (human, UniProt P06681 21-752).
T3 sequence: T1 sequence with A410K, N447A

For assay [4], the target named is T4, human C2 N471A (human, UniProt P06681 21-752).
T4 sequence: T1 sequence with A410K, N451A

Changes are numbered by the printed parent chain.

B1: RF16-226 (antibody, human IgG4 S228P, lambda)
heavy: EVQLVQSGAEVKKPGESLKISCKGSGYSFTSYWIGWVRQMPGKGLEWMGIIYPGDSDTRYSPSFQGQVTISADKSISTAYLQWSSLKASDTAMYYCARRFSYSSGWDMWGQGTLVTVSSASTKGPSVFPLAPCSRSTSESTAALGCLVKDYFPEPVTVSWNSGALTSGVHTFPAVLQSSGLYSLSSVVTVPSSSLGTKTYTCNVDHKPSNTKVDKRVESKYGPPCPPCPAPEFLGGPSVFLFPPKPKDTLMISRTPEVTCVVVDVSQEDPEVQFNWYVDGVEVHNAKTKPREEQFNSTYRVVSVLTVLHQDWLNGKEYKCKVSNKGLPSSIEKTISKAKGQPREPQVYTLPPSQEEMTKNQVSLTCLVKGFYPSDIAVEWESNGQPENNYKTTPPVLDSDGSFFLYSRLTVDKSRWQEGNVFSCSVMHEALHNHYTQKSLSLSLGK
light: SYELTQPPSVSVSPGQTARITCSGDALTSKYVAWYQQKSGLAPLLVIYEDTRRPSGIPAKFSGSSSGSVATLTISGAHGDDEADYYCYSTDASGHQRVFGGGTKLTVLSQPKAAPSVTLFPPSSEELQANKATLVCLISDFYPGAVTVAWKADGSPVKAGVETTKPSKQSNNKYAASSYLSLTPEQWKSHRSYSCQVTHEGSTVEKTVAPTECS
notes: pH-dependent anti-C2 antibody from a phage display library; also called WT
Consider B1, for which the Fold diff worked out at 6 fold in assay [1], 11 fold in assay [2], 2 fold in assay [3] and 1 fold in assay [4].

For the origin of these results see patent publication US20220332804A1 (CSL INNOVATION, published 2022).
